Consider one molecule from US20150266956A1 (UNIVERSITY OF ROCHESTER, published 2015).

The test deals with T1, murine DC-STAMP (dendritic cell-specific transmembrane protein) (mouse, UniProt Q7TNJ0 1-470).
T1 construct: whole, on cells; Endogenous protein; In the immunoprecipitation and immunoblot it came from cell lysates (about 50 kDa reduced, about 100 kDa non-reduced); also called mouse DC-STAMP
T1 sequence (looked up): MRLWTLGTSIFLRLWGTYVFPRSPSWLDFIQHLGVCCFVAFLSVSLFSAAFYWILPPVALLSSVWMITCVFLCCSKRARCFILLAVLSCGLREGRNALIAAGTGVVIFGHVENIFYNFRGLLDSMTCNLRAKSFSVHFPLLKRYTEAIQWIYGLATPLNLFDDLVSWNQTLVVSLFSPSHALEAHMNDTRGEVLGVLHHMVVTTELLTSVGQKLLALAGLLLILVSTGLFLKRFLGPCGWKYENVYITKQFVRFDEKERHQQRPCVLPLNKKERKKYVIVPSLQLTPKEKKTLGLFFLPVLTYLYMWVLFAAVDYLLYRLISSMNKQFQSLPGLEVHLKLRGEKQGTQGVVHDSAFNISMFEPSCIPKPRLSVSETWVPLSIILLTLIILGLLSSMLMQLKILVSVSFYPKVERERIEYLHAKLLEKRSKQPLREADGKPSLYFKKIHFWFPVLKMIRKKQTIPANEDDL
As to the kind of experiment: immunoprecipitation and immunoblot of RANKL-treated CD11b+ RAW 264.7 cell lysate (FIG. 1A). As to the method:
After immunoprecipitation with the 1A2 mAb, immunoblotting was performed with either the 1A2 mAb, the KR104 rabbit polyclonal antibody (positive control), or an anti-mouse IgG antibody (negative control) under non-reducing (nr: −β-mercaptoethanol) or reducing (r: +β-mercaptoethanol) conditions. M: protein marker, black and white scanned overlay. Blot is representative of 4 separate trials. […] Numbers below bands represent densitometry values used as a semiquantitative measure of relative protein level. Blot is representative of 2 separate trials.
To study surface protein expression, a mAb was generated against a peptide in the fourth extracellular domain of DC-STAMP. For comparison, a polyclonal DC-STAMP antibody was used that has histologically shown surface expression on OC (Kukita et al., J. Exp. Med. 200:941-6 (2004)). CD11b+ cells were cultured for 2 days with RANKL and extracted membrane fraction proteins for immunoprecipitation with the 1A2 mAb. […] Both antibodies also recognize a protein at double the molecular weight (˜100 kDa) under non-reducing (nr) conditions. In both reducing and non-reducing conditions, the 1A2 DC-STAMP mAb has a more intense band for the same amount of protein loaded in each lane. […] The 1A2 mAb clone was conjugated to FITC and used to determine if surface membrane DC-STAMP on CD11b+ cells could be detected by flow cytometry.

B1: DC-STAMP monoclonal antibody 1A2 (antibody, V domains shown)
VH: QVTLKESGPGILQPSQTLSLTCSFSGFSLSTFGMGVGWIRQPSGKGLEWLAHIWWDDDKYYSPALKSRLTISKDTSKNQVFLKIANVDTADTATYYCVRIGSRSPFAYWGPGTLVTVSS
VL: DIVMTQAAFSNPVTLGTSASISCRSSKSLLHSNGITYLYWYLQKPGQSPQVLIYQMSNLASGVPDRFSSSGSGTDFTLRISRVEAEDVGVYYCAQNLELPWTFGGGTKLEIKR
notes: The antibody was FITC-conjugated for flow cytometry and immunofluorescence; also called 1A2 mAb; clone 1A2
For B1, the binding result was “binds”.
